The values that follow come from US20200181601A1 (INSTITUT PASTEUR, published 2020).

A value given as a limit tells only on which side of the number the result lay.

For experiment [1], the target named is T1, PulD-CS, PulD variant lacking the N-domain (Klebsiella oxytoca, UniProt P15644 28-660).
T1 construct: domain: PulD variant lacking the N-domain
Put plainly: far-Western immunoblot.

The target of experiment [2] is T2, full-length PulD, monomeric (Klebsiella oxytoca, UniProt P15644 28-660).
T2 sequence: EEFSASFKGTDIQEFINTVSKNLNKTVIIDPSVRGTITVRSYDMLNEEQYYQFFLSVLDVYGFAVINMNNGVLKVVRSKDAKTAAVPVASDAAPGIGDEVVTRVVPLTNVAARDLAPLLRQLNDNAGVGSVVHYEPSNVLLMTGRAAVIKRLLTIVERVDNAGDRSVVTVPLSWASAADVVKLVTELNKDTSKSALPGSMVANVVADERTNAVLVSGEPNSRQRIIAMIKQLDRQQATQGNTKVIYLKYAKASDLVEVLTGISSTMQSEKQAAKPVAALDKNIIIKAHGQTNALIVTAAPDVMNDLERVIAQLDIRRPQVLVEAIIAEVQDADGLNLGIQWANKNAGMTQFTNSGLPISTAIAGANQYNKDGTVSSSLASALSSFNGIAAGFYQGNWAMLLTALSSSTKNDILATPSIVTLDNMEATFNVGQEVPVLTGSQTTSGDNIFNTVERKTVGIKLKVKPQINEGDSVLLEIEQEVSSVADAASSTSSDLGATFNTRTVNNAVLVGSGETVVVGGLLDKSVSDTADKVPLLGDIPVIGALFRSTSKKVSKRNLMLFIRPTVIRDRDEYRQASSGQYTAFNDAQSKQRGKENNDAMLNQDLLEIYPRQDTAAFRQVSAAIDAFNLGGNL
The experiment can be described thus: cell-based or functional assay.

The target of experiment [3] is T3, PulD-N, soluble monomeric fragment corresponding to the N-terminal region of PulD from Klebsiella oxytoca (Klebsiella oxytoca, UniProt P15644 28-264).
T3 sequence: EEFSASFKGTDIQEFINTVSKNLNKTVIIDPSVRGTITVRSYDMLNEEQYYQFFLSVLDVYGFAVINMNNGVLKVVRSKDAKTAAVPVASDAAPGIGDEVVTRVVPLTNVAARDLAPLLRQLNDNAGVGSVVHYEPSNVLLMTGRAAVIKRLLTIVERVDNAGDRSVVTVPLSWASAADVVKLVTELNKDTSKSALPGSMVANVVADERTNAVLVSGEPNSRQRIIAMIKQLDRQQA

Experiment [4] concerns the target T3, PulD-N, soluble monomeric fragment …. The experiment can be described thus: SPR, immobilized biotinylated PulD-N.

B1: Sac7*6-PhoA chimera (binder 6 fused to the N-terminus of E. coli alkaline phosphatase) (designed binder)
chain: RTPEMPVDGTGSVKVKFVLGGEEKEVDTSKIRHVYRYGKHVTFSYDDNGKLGLGLVKEKDAPKELLDMLARAEREKKLRAQPGVLENRAAQGDITAPGGARRLTGDQTAALRDSLSDKPAKNIILLIGDGMGDSEITAARNYAEGAGGFFKGIDALPLTGQYTHYALNKKTGKPDYVTDSAASATAWSTGVKTYNGALGVDIHEKDHPTILEMAKAAGLATGNVSTAELQGATPAALVAHVTSRKCYGPSATSEKCPGNALEKGGKGSITEQLLNARADVTLGGGAKTFAETATAGEWQGKTLREQAQARGYQLVSDAASLNSVTEANQQKPLLGLFADGNMPVRWLGPKATYHGNIDKPAVTCTPNPQRNDSVPTLAQMTDKAIELLSKNEKGFFLQVEGASIDKQGHAANPCGQIGETVDLDEAVQRALEFAKKEGNTLVIVTADHAHASQIVAPDTKAPGLTQALNTKDGAVMVMSYGNSEEDSQEHTGSQLRIAAYGPHAANVVGLTDQTDLFYTMKAALGLK
notes: also called clone 6-alkalin phosphatase fusion; Sac7*-PhoA
On to B1, for which, in experiment [1], the binding result is listed as “no binding”. In experiment [2], the “inhibition of pullulanase secretion, strain PAP5198 pCHAP231, IPTG induced” value (from here on “inhibition of pullulanase secretion”) is above 90%. In addition, the ratio signal/background in experiment [3] is above 10.

B2: Sac7*33-PhoA chimera (binder 33 fused to the N-terminus of E. coli alkaline phosphatase) (designed binder)
chain: RTPEMPVDGTGSVKVKFTWYGEEKEVDTSKIMSVCRWGKRVAFSYDDNGKIDYGLVDEKDAPKELLDMLARAEREKKLRAQPGVLENRAAQGDITAPGGARRLTGDQTAALRDSLSDKPAKNIILLIGDGMGDSEITAARNYAEGAGGFFKGIDALPLTGQYTHYALNKKTGKPDYVTDSAASATAWSTGVKTYNGALGVDIHEKDHPTILEMAKAAGLATGNVSTAELQGATPAALVAHVTSRKCYGPSATSEKCPGNALEKGGKGSITEQLLNARADVTLGGGAKTFAETATAGEWQGKTLREQAQARGYQLVSDAASLNSVTEANQQKPLLGLFADGNMPVRWLGPKATYHGNIDKPAVTCTPNPQRNDSVPTLAQMTDKAIELLSKNEKGFFLQVEGASIDKQGHAANPCGQIGETVDLDEAVQRALEFAKKEGNTLVIVTADHAHASQIVAPDTKAPGLTQALNTKDGAVMVMSYGNSEEDSQEHTGSQLRIAAYGPHAANVVGLTDQTDLFYTMKAALGLK
On to B2, for which the “inhibition of pullulanase secretion” value in experiment [2] was above 90%. Besides, the ratio signal/background in experiment [3] was above 10.

B3: Sac7*40-PhoA chimera (binder 40 fused to the N-terminus of E. coli alkaline phosphatase) (designed binder)
chain: RTPEMPVDGTGSVKVKFGEHGEEKEVDTSKIMSVVRFGKWVCFRYDDNGKAGYGAVLEKDAPKELLDMLARAEREKKLRAQPGVLENRAAQGDITAPGGARRLTGDQTAALRDSLSDKPAKNIILLIGDGMGDSEITAARNYAEGAGGFFKGIDALPLTGQYTHYALNKKTGKPDYVTDSAASATAWSTGVKTYNGALGVDIHEKDHPTILEMAKAAGLATGNVSTAELQGATPAALVAHVTSRKCYGPSATSEKCPGNALEKGGKGSITEQLLNARADVTLGGGAKTFAETATAGEWQGKTLREQAQARGYQLVSDAASLNSVTEANQQKPLLGLFADGNMPVRWLGPKATYHGNIDKPAVTCTPNPQRNDSVPTLAQMTDKAIELLSKNEKGFFLQVEGASIDKQGHAANPCGQIGETVDLDEAVQRALEFAKKEGNTLVIVTADHAHASQIVAPDTKAPGLTQALNTKDGAVMVMSYGNSEEDSQEHTGSQLRIAAYGPHAANVVGLTDQTDLFYTMKAALGLK
notes: also called Sac7*-PhoA
For B3, in experiment [1], the binding result was “no binding”. For the same molecule, the “inhibition of pullulanase secretion” value in experiment [2] was above 90%. The ratio signal/background in experiment [3] is above 10.

B4: wild type Sac7d (recombinant) (other)
chain: VKVKFKYKGEEKEVDTSKIKKVWRVGKMVSFTYDDNGKTGRGAVSEKDAPKELLDMLARAEREKK
notes: also called Sac7d wt; wt Sac7d
Take B4: the binding result in experiment [4] is recorded as “no binding”.
